Source: patent US5624659, “Method of treating brain tumors expressing tenascin” (Duke University, dated 1997)

Molecular target: tenascin on the tenascin-expressing human glioma cell line U-251 MG-C3 (glutaraldehyde-fixed) (human, UniProt P24821)
Test: modified Scatchard analysis, 125I-labelled antibody on glutaraldehyde-fixed U-251 MG-C3 cells
Protocol: A modified Scatchard analysis was used to measure the binding affinity of labeled ch81C6. Serially diluted 125I-labeled antibody (200 μl, 1:2 dilution starting from 1600 ng/ml) was incubated in 48-well plates overnight at 37° C. with the antigen-positive human glioma cell line U-251 MG-C3 fixed in glutaraldehyde and the antigen-negative human osteogenic sarcoma cell line 2T. The cells were washed and solubilized with 2N NaOH, and the radioactivity was measured with a gamma counter. The data was analyzed in accordance with known techniques (Y. S. Lee et al., *Cancer Res.* 48, 559 (1988)).
The ch81C6 from high production transfectoma F9C11A5 was purified and further characterized. It was labeled with ^125I using the Iodogen method, and the percentage of immunoreactivity was determined by absorption with D-54 MG xenograft homogenate. The affinity constant was defined by Scatchard analysis using binding assay on a tenascin-expressing cell line U-251 MGC-3 as described above.

- Ka: 1.67e+08 M⁻¹
B1: chimeric 81C6 (mouse/human chimeric antibody, human IgG2, from transfectoma F9C11A5) (antibody, V domains shown)
VH: EVQLQQSGPELVKPGASVKMSCKASGYTFTSYVVHWVKQNPGQGLEWIGYINPFNDGTKYNENFKGKATLTSDRSSSTAYMELSSLTSEESAVYFCARDMGREGFAYWGQGTLVTVSA
VL: DIVMTQAAFSNPVTLGTSASISCRSSKSLLHSNGITYLYWYLQKPGQSPQLLIYQMSNLASGVPDRFSSSGSGTDFTLRISRVEAEDVGVYYCAQNLELPRTFGGGTKLEIK
